Data: patent publication US20210308031

What was measured:
[1] = tested on: (Pro-Pro-Gly)10 peptide model substrate
[2] = tested on: Unhydroxylated collagen purified from strain PP434 (vector MMV411)

AB fusion protein with the His tag (P4HA1 at the N-terminus, GSGSGS linker, P4HB at the C-terminus, six histidines), encoded by plasmid MMV502
alpha-ketoglutaric acid consumption over time [1]: there was less a ketoglutaric acid in the sample with the AB fusion protein than the sample with native P4HA and P4HB proteins | % Hydroxyproline (in vitro hydroxylation, 5 uM enzyme, 2 uM collagen, 32 C, 1 hour); enzyme from strain PP547 [2]: 34.8% | % Hydroxyproline (in vitro hydroxylation, 5 uM enzyme, 2 uM collagen, 32 C, 1 hour); enzyme from strain PP635 [2]: 26.6%
